Source: patent publication US5260280A (priority 1989, dated 1993)
Several values for one entry are separate records, joined by “and”; a condition that tells them apart may be missing. Equal values may be shown once.

Assays:
cholera toxin B-subunits = cholera toxin B-subunits (Vibrio cholerae, UniProt P01556); format: binding
cholera toxin CT = cholera toxin CT (Vibrio cholerae, UniProt P01556); format: cell-based
enterotoxin LT-I = system: enterotoxin LT-I; parameters: species or system E. coli; details: in vivo, po
[1] = target: enterotoxin CFA/II(LT-II) (Escherichia coli, UniProt P0CK94); format: cell-based, E. coli
enterotoxin CFA/I(LT-1) = enterotoxin CFA/I(LT-1) (Escherichia coli, UniProt D0Z6T1); format: cell-based, E. coli

B1: lactoferrin (protein, UniProt P24627 20-708, looked up)
Lactotransferrin: APRKNVRWCTISQPEWFKCRRWQWRMKKLGAPSITCVRRAFALECIRAIAEKKADAVTLDGGMVFEAGRDPYKLRPVAAEIYGTKESPQTHYYAVAVVKKGSNFQLDQLQGRKSCHTGLGRSAGWIIPMGILRPYLSWTESLEPLQGAVAKFFSASCVPCIDRQAYPNLCQLCKGEGENQCACSSREPYFGYSGAFKCLQDGAGDVAFVKETTVFENLPEKADRDQYELLCLNNSRAPVDAFKECHLAQVPSHAVVARSVDGKEDLIWKLLSKAQEKFGKNKSRSFQLFGSPPGQRDLLFKDSALGFLRIPSKVDSALYLGSRYLTTLKNLRETAEEVKARYTRVVWCAVGPEEQKKCQQWSQQSGQNVTCATASTTDDCIVLVLKGEADALNLDGGYIYTAGKCGLVPVLAENRKSSKHSSLDCVLRPTEGYLAVAVVKKANEGLTWNSLKDKKSCHTAVDRTAGWNIPMGLIVNQTGSCAFDEFFSQSCAPGADPKSRLCALCAGDDQGLDKCVPNSKEKYYGYTGAFRCLAEDVGDVAFVKNDTVWENTNGESTADWAKNLNREDFRLLCLDGTRKPVTEAQSCHLAVAPNHAVVSRSDRAAHVKQVLLHQQALFGKNGKNCPDKFCLFKSETKNLLFNDNTECLAKLGGRPTYEEYLGTEYVTAIANLKKCSTSPLLEACAFLTR
- interference with the binding of the cholera toxin B-subunits to GM1 (cholera toxin B-subunits): interfered with the binding
- neutralization of the toxicity of CT against CHO-Kl cells (morphological alteration) (cholera toxin CT): neutralized the toxicity
- Rate of diarrhea (enterotoxin LT-I): 40% and 20%
- neutralization of the toxicity of LT-II against CHO-Kl cells (morphological alteration) [1]: neutralized the toxicity
- neutralization of the toxicity of LT-I against CHO-Kl cells (morphological alteration) (enterotoxin CFA/I(LT-1)): neutralized the toxicity
